# T1: hsGLUT4 P224A (human, UniProt P14672 1-509)
# T1 sequence: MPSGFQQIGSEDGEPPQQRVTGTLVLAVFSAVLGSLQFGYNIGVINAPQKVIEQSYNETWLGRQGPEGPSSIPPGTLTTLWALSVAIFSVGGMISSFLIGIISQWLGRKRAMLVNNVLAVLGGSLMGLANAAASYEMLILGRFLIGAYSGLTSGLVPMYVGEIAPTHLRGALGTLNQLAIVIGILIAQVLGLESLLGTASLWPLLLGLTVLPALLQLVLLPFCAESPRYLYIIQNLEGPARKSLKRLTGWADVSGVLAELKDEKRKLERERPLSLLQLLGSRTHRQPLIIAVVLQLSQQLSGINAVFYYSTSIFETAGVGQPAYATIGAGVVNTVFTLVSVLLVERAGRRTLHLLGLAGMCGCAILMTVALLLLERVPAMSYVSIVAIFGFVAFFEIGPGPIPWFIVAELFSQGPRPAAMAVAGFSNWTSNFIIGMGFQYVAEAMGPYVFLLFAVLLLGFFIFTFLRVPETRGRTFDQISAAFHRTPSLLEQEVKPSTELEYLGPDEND
# T2: hsGLUT4 G65A (human, UniProt P14672 1-509)
# T2 sequence: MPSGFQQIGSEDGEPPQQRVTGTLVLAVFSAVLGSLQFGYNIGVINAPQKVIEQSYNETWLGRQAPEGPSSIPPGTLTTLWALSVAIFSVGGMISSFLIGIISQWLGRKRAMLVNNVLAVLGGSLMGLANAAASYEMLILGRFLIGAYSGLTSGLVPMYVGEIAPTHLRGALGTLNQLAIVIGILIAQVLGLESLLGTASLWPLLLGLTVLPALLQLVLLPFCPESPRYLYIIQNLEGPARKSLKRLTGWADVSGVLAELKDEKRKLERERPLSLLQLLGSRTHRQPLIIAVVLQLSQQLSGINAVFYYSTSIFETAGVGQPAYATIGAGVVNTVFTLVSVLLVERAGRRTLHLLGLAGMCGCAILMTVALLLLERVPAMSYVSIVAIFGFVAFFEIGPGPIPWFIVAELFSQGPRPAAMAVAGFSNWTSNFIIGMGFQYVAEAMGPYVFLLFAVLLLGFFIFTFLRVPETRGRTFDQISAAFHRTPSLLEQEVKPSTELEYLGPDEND
# T3: hsGLUT4 D506A (human, UniProt P14672 1-509)
# T3 sequence: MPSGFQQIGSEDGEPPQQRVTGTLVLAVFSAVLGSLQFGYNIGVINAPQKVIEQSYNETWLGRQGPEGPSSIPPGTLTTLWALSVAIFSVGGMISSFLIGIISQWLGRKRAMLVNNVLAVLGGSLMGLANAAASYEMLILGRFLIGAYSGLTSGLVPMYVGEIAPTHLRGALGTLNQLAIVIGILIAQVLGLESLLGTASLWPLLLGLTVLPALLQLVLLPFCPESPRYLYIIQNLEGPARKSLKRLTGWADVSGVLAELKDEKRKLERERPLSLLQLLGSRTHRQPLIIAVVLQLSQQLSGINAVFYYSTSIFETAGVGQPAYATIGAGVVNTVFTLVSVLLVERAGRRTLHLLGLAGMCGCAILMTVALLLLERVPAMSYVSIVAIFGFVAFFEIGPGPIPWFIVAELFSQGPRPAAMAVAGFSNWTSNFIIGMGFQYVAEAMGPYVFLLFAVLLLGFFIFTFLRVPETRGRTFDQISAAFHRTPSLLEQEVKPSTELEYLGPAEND
# T4: hsGLUT4 L247A (human, UniProt P14672 1-509)
# T4 sequence: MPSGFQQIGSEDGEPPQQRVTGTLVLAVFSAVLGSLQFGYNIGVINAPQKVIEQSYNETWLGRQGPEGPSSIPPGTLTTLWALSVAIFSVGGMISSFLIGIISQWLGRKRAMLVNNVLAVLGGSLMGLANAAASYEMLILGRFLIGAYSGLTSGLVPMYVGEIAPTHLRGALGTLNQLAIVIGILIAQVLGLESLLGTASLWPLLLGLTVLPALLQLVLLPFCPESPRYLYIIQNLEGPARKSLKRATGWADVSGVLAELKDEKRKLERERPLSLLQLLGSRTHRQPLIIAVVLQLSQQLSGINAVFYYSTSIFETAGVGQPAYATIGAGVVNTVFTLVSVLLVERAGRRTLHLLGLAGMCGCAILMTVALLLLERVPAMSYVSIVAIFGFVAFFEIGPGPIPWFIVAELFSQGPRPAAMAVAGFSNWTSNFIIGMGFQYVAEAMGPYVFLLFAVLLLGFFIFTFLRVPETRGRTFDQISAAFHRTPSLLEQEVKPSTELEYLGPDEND
# How the values were obtained:
# Assay in all cases: flow cytometry, alanine-scan library in HEK-293T
# hsGLUT4 P224A = molecular target: T1, hsGLUT4 P224A
# How it was run: (§1)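 HEK-293T cells expressing individual GLUT4 alanine mutants were stained 48 h post-transfection with anti-GLUT4 scFv MAbs (2 μg/ml), then biotinylated secondary and streptavidin-PerCP, and read by high-throughput flow cytometry. Where used, cytochalasin B (10 uM final) was given for 30 min before and during primary antibody staining.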
# hsGLUT4 G65A = molecular target: T2, hsGLUT4 G65A
# How it was run: as §1
# hsGLUT4 D506A = molecular target: T3, hsGLUT4 D506A
# How it was run: as §1
# hsGLUT4 L247A = molecular target: T4, hsGLUT4 L247A
# How it was run: as §1
Molecule,% of binding to wild type GLUT4 (hsGLUT4 P224A) [%],% of binding to wild type GLUT4 (hsGLUT4 G65A) [%],% of binding to wild type GLUT4 (hsGLUT4 D506A) [%],% of binding to wild type GLUT4 (hsGLUT4 L247A) [%]
1F8 (antibody),103,95,29,95
"AB108 (Fc fusion, Bivalent scFv-Fc; also called MAb AB108; not shown: Fc fragment of human IgG1, cloned in frame with the scFv) scFv: ALTQPSSVSANLGGTVKITCSGSSGSYGWYQQKAPGSAPVTLIYRNDKRPSDIPSRFSGSESGSTGTLTITGVQAEDEAVYFCGGYDSSAGYAAFGAGTTLTVLGQSSRSSGGGGSSGGGGSAVTLDESGGGLQTPGGALSLVCKASGFTFSSHGMGWVRQAPGKGLEWVGSISTGRYTFYAPAVKGRATISRDNGQSTLRLQLNNLRAEDTGTYYCTKCAGLNGCGGGEIDAWGHGTEVIVSS",56,1,105,110
"AB111 (Fc fusion, Bivalent scFv-Fc; also called MAb AB111; not shown: Fc fragment of human IgG1, cloned in frame with the scFv) scFv: ALTQPSSVSANPGETVKITCSGSGSWYGWFQQKSPGSAPVTVIYSNDKRPSDIPSRFSGSKSGSTSTLTITGVQVEDEAVYYCGNWDIFGAGTTLTVLGQSSRSSGGGGSSGGGGSAVTLDESGGGLQTPGGALSLVCKASGFTFSSHGMGWVRQAPGKGLEWVASISTGRYTFYAPAVKGRATISRDNGQSTVRLQLNNLRAEDTATYYCTKCAGLNGCGGGEIDAWGHGTEVIVSS",108,15,158,99
"AB101 (scFv, Chicken-derived clone used as a control; the four lead clones were tested as scFv-human IgG1 Fc; also called MAb AB101) scFv: ALTQPSSVSANPGETVKITCSGSSNSYGWYQQKSPGSAPVTVIYYNDKRPSDIPSRFSGSKSDSTHTLTITGVRAEDEAVYFCGSYDSTYVGIFGAGTTLTVLGQSSRSSGGGGSSGGGGSAVTLDESGGGLQTPGGTLSLVCKASGFTFSSNAMGWVRQAPGKGLEWVAGISSDGRYTKYGSAVKGRATISRDNGQSTVRLQLNNLRAEDTGTYFCAKAFGNNYRRIYAGQIDAWGHGTEVIVSS",90,87,34,111

# From patent US20210238276A1 (INTEGRAL MOLECULAR, published 2021)
